Data as given in publication PMC12416549 (2024).
Changes are numbered by the printed parent chain. Names may count otherwise.

T1: TNFR1 (Homo sapiens, UniProt P19438)
T1 chain: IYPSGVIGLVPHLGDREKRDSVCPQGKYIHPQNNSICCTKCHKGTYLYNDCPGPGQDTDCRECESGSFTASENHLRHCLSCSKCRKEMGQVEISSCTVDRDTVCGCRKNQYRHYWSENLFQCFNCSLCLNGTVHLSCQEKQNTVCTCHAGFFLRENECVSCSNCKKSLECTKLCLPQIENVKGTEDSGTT

B1: T2D (designed binder)
chain: MDLQELLREEALRRAEAEAFRYALELLAEKFPEQKEYLLDLAEEIESQIRSLSGVDVEDVRKFLDKEWAWVKELLAEHPAELAEVEAARAARLAELRAEVEAKVAA
B2: E84F (designed binder)
chain: B1 chain with D2T, E84F
B3: V71I (designed binder)
chain: B1 chain with D2T, V71I
B4: V60G (designed binder)
chain: B1 chain with D2T, V60G
B5: A23S (designed binder)
chain: B1 chain with D2T, A23S
B6: V55Y (designed binder)
chain: B1 chain with D2T, V55Y
B7: T2Q (designed binder)
chain: B1 chain with D2Q
B8: A106H (designed binder)
chain: B1 chain with D2T, A106H
B9: A69E (designed binder)
chain: B1 chain with D2T, A69E
B10: H78S (designed binder)
chain: B1 chain with D2T, H78S
B11: E10S (designed binder)
chain: B1 chain with D2T, E10S
B12: E67V (designed binder)
chain: B1 chain with D2T, E67V
B13: A87G (designed binder)
chain: B1 chain with D2T, A87G
B14: S53H (designed binder)
chain: B1 chain with D2T, S53H
B15: L74P (designed binder)
chain: B1 chain with D2T, L74P
B16: V57A (designed binder)
chain: B1 chain with D2T, V57A
B17: V100I (designed binder)
chain: B1 chain with D2T, V100I
B18: R89Q (designed binder)
chain: B1 chain with D2T, R89Q
B19: E44N (designed binder)
chain: B1 chain with D2T, E44N
B20: D59E (designed binder)
chain: B1 chain with D2T, D59E
B21: A80I (designed binder)
chain: B1 chain with D2T, A80I
B22: A69D (designed binder)
chain: B1 chain with D2T, A69D
B23: L39R (designed binder)
chain: B1 chain with D2T, L39R
B24: H78P (designed binder)
chain: B1 chain with D2T, H78P
B25: A106Y (designed binder)
chain: B1 chain with D2T, A106Y
B26: E5C (designed binder)
chain: B1 chain with D2T, E5C
B27: E16Y (designed binder)
chain: B1 chain with D2T, E16Y
B28: L74N (designed binder)
chain: B1 chain with D2T, L74N
B29: L75K (designed binder)
chain: B1 chain with D2T, L75K
B30: W70C (designed binder)
chain: B1 chain with D2T, W70C
B31: V60Y (designed binder)
chain: B1 chain with D2T, V60Y
B32: V60I (designed binder)
chain: B1 chain with D2T, V60I
B33: W68K (designed binder)
chain: B1 chain with D2T, W68K
B34: M1K (designed binder)
chain: B1 chain with M1K, D2T
B35: Q48S (designed binder)
chain: B1 chain with D2T, Q48S
B36: F63M (designed binder)
chain: B1 chain with D2T, F63M
B37: R89N (designed binder)
chain: B1 chain with D2T, R89N
B38: L27H (designed binder)
chain: B1 chain with D2T, L27H
B39: R89E (designed binder)
chain: B1 chain with D2T, R89E
B40: L74C (designed binder)
chain: B1 chain with D2T, L74C
B41: E25A (designed binder)
chain: B1 chain with D2T, E25A
B42: E44A (designed binder)
chain: B1 chain with D2T, E44A
B43: L75Q (designed binder)
chain: B1 chain with D2T, L75Q
B44: R8C (designed binder)
chain: B1 chain with D2T, R8C
B45: R61F (designed binder)
chain: B1 chain with D2T, R61F
B46: L24P (designed binder)
chain: B1 chain with D2T, L24P
B47: A94V (designed binder)
chain: B1 chain with D2T, A94V
B48: L64G (designed binder)
chain: B1 chain with D2T, L64G
B49: L52A (designed binder)
chain: B1 chain with D2T, L52A
B50: L24F (designed binder)
chain: B1 chain with D2T, L24F
B51: L27N (designed binder)
chain: B1 chain with D2T, L27N
B52: S53Y (designed binder)
chain: B1 chain with D2T, S53Y
B53: E67H (designed binder)
chain: B1 chain with D2T, E67H
B54: D65A (designed binder)
chain: B1 chain with D2T, D65A
B55: K103W (designed binder)
chain: B1 chain with D2T, K103W
B56: P32A (designed binder)
chain: B1 chain with D2T, P32A
B57: A42Q (designed binder)
chain: B1 chain with D2T, A42Q
B58: A23E (designed binder)
chain: B1 chain with D2T, A23E
B59: L74D (designed binder)
chain: B1 chain with D2T, L74D

Target: T1, TNFR1
Assay: yeast display SC50

apparent Kd (screen) [nM]	Binder
1.54	B1
0.593	B2
0.539	B3
1.54	B4
0.446	B5
0.956	B6
1.27	B7
0.718	B8
0.956	B9
0.79	B10
2.25	B11
20.2	B12
0.869	B13
0.653	B14
13.8	B15
0.49	B16
0.653	B17
0.593	B18
24.4	B19
0.539	B20

apparent Kd (screen) [nM]	Binder
0.593	B21
0.653	B22
1.4	B23
1.69	B24
0.79	B25
0.79	B26
0.446	B27
1.27	B28
0.593	B29
2.73	B30
0.539	B31
0.653	B32
12.5	B33
0.49	B34
0.593	B35
1.16	B36
1.05	B37
0.869	B38
0.956	B39
1.4	B40

apparent Kd (screen) [nM]	Binder
0.405	B41
7.78	B42
0.79	B43
0.593	B44
1.05	B45
26.9	B46
0.539	B47
1.69	B48
0.446	B49
0.653	B50
0.49	B51
6.43	B52
0.335	B53
0.653	B54
0.718	B55
0.653	B56
2.05	B57
0.49	B58
3	B59
